Data from PMC4215875.

Legend:
[1] = target: FcRn (UniProt P55899); assay: SPR
[2] = target: alpha-HER2 CT ADC (UniProt P01857); settings: pH 7.3; not stated (pH 7.3)
[3] = target: alpha-HER2 CH1 tag (trastuzumab with aldehyde Tag C) (UniProt P01857); settings: pH 7.3; not stated (pH 7.3)
[4] = target: alpha-HER2 LC tag (trastuzumab with light-chain aldehyde tag); settings: pH 7.3; not stated (pH 7.3)
[5] = target: alpha-HER2 CT tag (trastuzumab with aldehyde Tag G) (UniProt P01857); settings: pH 7.3; not stated (pH 7.3)
[6] = target: alpha-HER2-DM1 ADC (in-house T-DM1 analogue) none in sequence; heterogeneous lysine conjugation with SMCC-DM1 (DAR 3.4) (UniProt P01857); settings: pH 7.3; not stated (pH 7.3)
[7] = target: alpha-HER2 LC ADC (UniProt P01857); settings: pH 7.3; not stated (pH 7.3)
[8] = target: alpha-HER2 untagged (trastuzumab) (UniProt P01857); settings: pH 7.3; not stated (pH 7.3)
[9] = target: alpha-HER2 CH1 ADC (UniProt P01857); settings: pH 7.3; not stated (pH 7.3)

| Substance | % Bound after 5 s at pH 7.3 [1] [%] | Kd [1] [nM] | other results |
| --- | --- | --- | --- |
| α-HER2-DM1 ADC (trastuzumab conjugated through conventional lysine chemistry to SMCC-DM1) (antibody) | 14.9 | 5 | – |
| α-HER2 LC tag (trastuzumab with the aldehyde tag in the light chain) (antibody) | 11 | 4.7 | – |
| α-HER2 CH1 ADC (CH1-tagged trastuzumab conjugated to HIPS-Glu-PEG2-maytansine) (antibody) | – | 4.8 | – |
| Neonatal Fc receptor (FcRn) | – | – | % Bound after 5 s [2]: 12 % bound; % Bound after 5 s [3]: 9.9 % bound; % Bound after 5 s [4]: 11 % bound; % Bound after 5 s [5]: 9.9 % bound; % Bound after 5 s [6]: 14.9 % bound; % Bound after 5 s [7]: 10.9 % bound; % Bound after 5 s [8]: 8.6 % bound; % Bound after 5 s [9]: 9.5 % bound |
| α-HER2 CT tag (trastuzumab with the aldehyde tag at the heavy chain C-terminus, Tag G) (antibody) | 9.9 | 5.8 | – |
| α-HER2 CT ADC (CT-tagged trastuzumab conjugated to HIPS-Glu-PEG2-maytansine) (antibody) | 12 | 4.4 | – |
| α-HER2 untagged (trastuzumab) (antibody) | – | 5.2 | – |
| α-HER2 CH1 tag (trastuzumab with the aldehyde tag in the CH1 domain, Tag C) (antibody) | 9.9 | 5.2 | – |
| α-HER2 LC ADC (LC-tagged trastuzumab conjugated to HIPS-Glu-PEG2-maytansine) (antibody) | 10.9 | 4.8 | – |
